Source: publication PMC5801464, “Expanding Primary Metabolism Helps Generate the Metabolic Robustness To Facilitate Antibiotic Biosynthesis in Streptomyces” (mBio, 2018)

Assays:
Pyk1 [1] = biological target: T1, Pyk1 (Streptomyces coelicolor, UniProt Q9S2I9); experiment: pyruvate kinase activity assay, purified enzyme; assay type: biochemical; conditions: activator
T1 construct: E. coli codon-optimized gene; E. coli Origami B host
T1 sequence (Q9S2I9 1-478): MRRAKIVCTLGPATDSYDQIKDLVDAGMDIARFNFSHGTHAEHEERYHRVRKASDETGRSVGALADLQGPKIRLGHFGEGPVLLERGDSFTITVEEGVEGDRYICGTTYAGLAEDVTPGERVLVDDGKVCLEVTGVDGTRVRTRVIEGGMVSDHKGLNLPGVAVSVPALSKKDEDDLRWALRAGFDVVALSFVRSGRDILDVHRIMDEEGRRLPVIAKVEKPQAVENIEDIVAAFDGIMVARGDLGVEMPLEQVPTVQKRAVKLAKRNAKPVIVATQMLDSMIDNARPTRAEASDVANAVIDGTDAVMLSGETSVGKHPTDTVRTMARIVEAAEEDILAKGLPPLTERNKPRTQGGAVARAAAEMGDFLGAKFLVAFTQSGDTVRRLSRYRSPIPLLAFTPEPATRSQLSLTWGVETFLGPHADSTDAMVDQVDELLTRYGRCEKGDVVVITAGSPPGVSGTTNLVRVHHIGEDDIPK

Pyk2 = biological target: T2, Pyk2 (Streptomyces coelicolor, UniProt Q9L299); experiment: pyruvate kinase activity assay, purified enzyme, Hill or Michaelis-Menten fit; assay type: biochemical; conditions: activator; PEP and ADP concentrations not told; read-out: No AMP / Pyk2
T2 construct: native gene; E. coli Rosetta host
T2 sequence (Q9L299 1-476): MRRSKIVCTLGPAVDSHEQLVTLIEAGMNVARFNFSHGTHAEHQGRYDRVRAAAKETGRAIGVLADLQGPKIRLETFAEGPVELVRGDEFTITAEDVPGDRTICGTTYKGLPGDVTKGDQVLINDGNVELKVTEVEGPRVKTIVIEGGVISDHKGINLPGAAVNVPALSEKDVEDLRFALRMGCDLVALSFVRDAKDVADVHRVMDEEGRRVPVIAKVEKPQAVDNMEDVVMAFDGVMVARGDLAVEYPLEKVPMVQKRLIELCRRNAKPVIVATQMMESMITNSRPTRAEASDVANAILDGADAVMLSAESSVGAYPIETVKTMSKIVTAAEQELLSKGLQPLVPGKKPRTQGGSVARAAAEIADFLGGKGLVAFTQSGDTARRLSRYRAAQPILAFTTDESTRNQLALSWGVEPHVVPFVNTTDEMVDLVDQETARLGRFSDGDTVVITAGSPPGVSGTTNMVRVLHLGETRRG
Description: pyruvate kinase activity assay, purified enzyme, Hill or Michaelis-Menten fit on Pyk2

Pyk1 [2] = biological target: T1, Pyk1; experiment: as above; assay type: biochemical; conditions: activator; PEP and ADP concentrations not told; read-out: No AMP / Pyk1
Description: pyruvate kinase activity assay, purified enzyme, Hill or Michaelis-Menten fit on Pyk1

[3] = substrate: Nc1ncnc2c1ncn2[C@@H]1O[C@H](COP(=O)(O)OP(=O)(O)O)[C@@H](O)[C@H]1O; experiment: pyruvate kinase activity assay, purified enzyme, Michaelis-Menten fit; assay type: biochemical, Streptomyces coelicolor; conditions: 5 mM PEP; no AMP; Michaelis-Menten-type kinetics
Description: pyruvate kinase activity assay, purified enzyme, Michaelis-Menten fit on Pyk2

[4] = substrate: C=C(OP(=O)(O)O)C(=O)O; experiment: pyruvate kinase activity assay, purified enzyme, Hill fit; assay type: biochemical, Streptomyces coelicolor; conditions: 1.5 mM ADP; no AMP; cooperative, Hill coefficient 1.5
Description: pyruvate kinase activity assay, purified enzyme, Hill fit on Pyk2

[5] = substrate: Nc1ncnc2c1ncn2[C@@H]1O[C@H](COP(=O)(O)OP(=O)(O)O)[C@@H](O)[C@H]1O; experiment: pyruvate kinase activity assay, purified enzyme, Michaelis-Menten fit; assay type: biochemical, Streptomyces coelicolor; conditions: 5 mM PEP; no AMP; Michaelis-Menten-type kinetics; remark: listed apart in the source
Description: pyruvate kinase activity assay, purified enzyme, Michaelis-Menten fit on Pyk1

[6] = substrate: C=C(OP(=O)(O)O)C(=O)O; experiment: pyruvate kinase activity assay, purified enzyme, Hill fit; assay type: biochemical, Streptomyces coelicolor; conditions: 1.5 mM ADP; no AMP; cooperative, Hill coefficient 3.7
Description: pyruvate kinase activity assay, purified enzyme, Hill fit on Pyk1

`O=P(O)(O)OC[C@H]1OC(O)[C@H](O)[C@@H]1O` (stereo partly shown) [ribose-5-phosphate] was tested, and the “pyruvate kinase activity assay, purified enzyme” value (Pyk1 [1]) was “Pyk1 was also shown to be highly stimulated by ribose-5-phosphate”.

`Nc1ncnc2c1ncn2[C@@H]1O[C@H](COP(=O)(O)O)[C@@H](O)[C@H]1O` [AMP] was tested, and the EC50 (Pyk2) was 3800 µM and the EC50 (Pyk1 [2]) was 10 µM.

B1: Pyk2 (Streptomyces coelicolor A3(2)) (protein)
chain: MRRSKIVCTLGPAVDSHEQLVTLIEAGMNVARFNFSHGTHAEHQGRYDRVRAAAKETGRAIGVLADLQGPKIRLETFAEGPVELVRGDEFTITAEDVPGDRTICGTTYKGLPGDVTKGDQVLINDGNVELKVTEVEGPRVKTIVIEGGVISDHKGINLPGAAVNVPALSEKDVEDLRFALRMGCDLVALSFVRDAKDVADVHRVMDEEGRRVPVIAKVEKPQAVDNMEDVVMAFDGVMVARGDLAVEYPLEKVPMVQKRLIELCRRNAKPVIVATQMMESMITNSRPTRAEASDVANAILDGADAVMLSAESSVGAYPIETVKTMSKIVTAAEQELLSKGLQPLVPGKKPRTQGGSVARAAAEIADFLGGKGLVAFTQSGDTARRLSRYRAAQPILAFTTDESTRNQLALSWGVEPHVVPFVNTTDEMVDLVDQETARLGRFSDGDTVVITAGSPPGVSGTTNMVRVLHLGETRRG
notes: native gene; E. coli Rosetta host
B1 was tested, and the K0.5 [3] was 0.3 mM, the kcat/Km [3] was 145000 M⁻¹ s⁻¹ and the K0.5 [4] was 1.3 mM. For the same molecule, the kcat/Km [4] was 14000 M⁻¹ s⁻¹.

B2: Pyk1 (Streptomyces coelicolor A3(2)) (protein)
chain: MRRAKIVCTLGPATDSYDQIKDLVDAGMDIARFNFSHGTHAEHEERYHRVRKASDETGRSVGALADLQGPKIRLGHFGEGPVLLERGDSFTITVEEGVEGDRYICGTTYAGLAEDVTPGERVLVDDGKVCLEVTGVDGTRVRTRVIEGGMVSDHKGLNLPGVAVSVPALSKKDEDDLRWALRAGFDVVALSFVRSGRDILDVHRIMDEEGRRLPVIAKVEKPQAVENIEDIVAAFDGIMVARGDLGVEMPLEQVPTVQKRAVKLAKRNAKPVIVATQMLDSMIDNARPTRAEASDVANAVIDGTDAVMLSGETSVGKHPTDTVRTMARIVEAAEEDILAKGLPPLTERNKPRTQGGAVARAAAEMGDFLGAKFLVAFTQSGDTVRRLSRYRSPIPLLAFTPEPATRSQLSLTWGVETFLGPHADSTDAMVDQVDELLTRYGRCEKGDVVVITAGSPPGVSGTTNLVRVHHIGEDDIPK
notes: E. coli codon-optimized gene; E. coli Origami B host
With B2 the K0.5 [5] was 0.6 mM, the kcat/Km [5] was 1.59e+06 M⁻¹ s⁻¹ and the K0.5 [6] was 3.5 mM. It also gave a Vmax [6] of 14.1 µmol/min/mg, a kcat [6] of 350 s⁻¹ and a kcat/Km [6] of 100000 M⁻¹ s⁻¹.
